We go through six molecules from patent publication US11554097B2, “Recombinant production of hybrid lipid-biopolymer materials that self-assemble and encapsulate agents” (Duke University, priority 2017, dated 2023).

What all share (format): physicochemical
A short description of data set [1]: Cryo-TEM imaging of self-assembled structures. The following applies: PBS, filtered. How it is done:
Cryo-transmission electron microscopy (TEM) experiments were performed at Duke University's Shared Materials Instrumentation Facility and at Thermo Fisher Scientific (Formerly FEI). Lacey holey carbon grids (Ted Pella, Redding, Calif.) were glow discharged in a PELCO EasiGlow Cleaning System (Ted Pella, Redding, Calif.). After filtering the samples, a 3 μL drop (1 mg/mL of each construct) at 25° C. (below the Tt for M-ELP constructs) was deposited onto the grid, blotted for 3 s with an offset of −3 mm, and vitrified in liquid ethane using the Vitrobot Mark III (FEI, Eindhoven, Netherlands). The sample chamber was maintained at 100% relative humidity to prevent sample evaporation. Grids were transferred to a Gatan 626 cryoholder (Gatan, Pleasanton, Calif.) and imaged with an FEI Tecnai G^2 Twin TEM (FEI, Eindhoven, Netherlands), which was operated at 80 keV.

A short description of data set [2]: Dynamic and static light scattering of self-assembled M-ELPs. The following applies: for Hydrodynamic Radius, Day 0, Rh: Day 0, freshly filtered; for Hydrodynamic Radius, Day 0, Rh / Shape Factor, ρ, Rg/Rh / Second Virial Coefficient A2: PBS; for Shape Factor, ρ, Rg/Rh / Second Virial Coefficient A2: full Zimm plots; for Aggregation Number, Nagg, MWparticle/Munimer: partial Zimm plots, Day 0; for hydrodynamic radius (Rh) by DLS: filtered samples in PBS at 25° C. How it is done: Characterization of myristoylated and non-myristoylated ELPs: Dynamic light scattering (DLS) studies were carried out to investigate the self-assembly of various myristoylated ELPs in aqueous solution. Prior to analysis, samples were prepared in PBS at a concentration of 50 μM, and filtered through a 0.22 μm polyvinylidene fluoride membrane (Durapore) directly into a quartz DLS cell. DLS experiments were conducted in a temperature-controlled DynaPro Microsampler (Wyatt Technologies). Measurements were obtained over a temperature range of 15 to 20° C. using 1° C. steps and at 25° C. 18 acquisitions of 5 s each were collected for every temperature point. Autocorrelation intensities at 15° C. were fitted using the regularization model and then depicted as a population size distribution histogram (FIG. 13) and intensity size distribution (FIG. 14) using Wyatt Dynamics software.
Static light scattering (SLS) studies were carried out to quantify the Rg, Rh, and Nagg of myristoylated ELPs in aqueous solution. Samples were prepared in PBS at concentration ranging from 0.5-5 mg/mL and filtered through a 0.22 μm polyvinylidene fluoride membrane (Durapore) directly into a 10 mm, disposable borosilicate glass tube (Fisher Scientific). Experiments were performed using an ALV/CGS-3 goniometer system (Germany). For M-ELP90A,120 and M-ELP90A,80, as well as for M-ELP90A,40 and M-ELP100V,40 at early time points, measurements were obtained at 25° C. for angles between 30 and 150° C. and made at 5° C. increments with 3 runs of 10 s. Smaller angles (20-45° C.) were used to measure the 40-mer ELPs at later time points, after they had matured to their larger rod-like shape. Full Zimm plots were created by conducting SLS for each construct at different concentrations ranging from 25 μM to 100 μM. These Zimm plots were created using SLS data and ALVStat software after the refractive index increment (dn/dc) was calculated (FIG. 15). These plots provided the second virial coefficient and Rg and from which shape factor was calculated (TABLE 1). Partial Zimm plots were used to calculate Nagg at 1 mg/mL.

Data set [3] can be described thus: DLS kinetics study of self-assembly. Conditions: 50 μM in PBS, room temperature, after filtering. How it is done: Thus, we wanted to take more frequent light scattering measurements to track their changing size. Larger particles scatter more light, thus, we tracked intensity via DLS to monitor the size of the 40-mer M-ELPs' self-assembly.
The 40-mer M-ELPs were prepared at 50 μM in PBS and filtered directly into the instrument's quartz cell. The instrument was pre-set to room temperature and, immediately after filtering, the sample was measured periodically over 24 h for both constructs and out to 1 week for M-ELP90A,40. While M-ELP90A,40 takes 144-168 h to reach equilibrium (FIG. 17A), M-ELP100V,40 appears to do so more quickly, by 24 h after filtering (FIG. 17B).

The nature of data set [4]: UV-Vis turbidity, temperature-triggered LCST phase transition. How it is done:
We investigated the temperature-triggered phase-transition of each construct by recording the optical density of the protein solution at 350 nm as the temperature is ramped up and down on a temperature-controlled UV-Vis spectrophotometer (Cary 300 Bio, Varian Instruments, Palo Alto, Calif.) (FIG. 10-FIG. 12). The transition temperature (T) is defined as the inflection point of the turbidity profile and was calculated as the maximum of the first derivative of OD350 versus temperature, which was determined using Igor Pro software (FIG. 10). Turbidity profiles for each sample were measured in PBS at concentrations between 12.5 and 250 μM. For the non-myristoylated control sample, ELP90A,40, the transition temperatures at these concentrations were well above 80° C. Consequently, their […] values were monitored in 1 M NaCl, which served to reduce the T into a temperature range that is experimentally accessible.
We next used UV-vis spectrophotometry to evaluate whether the lipid-ELP hybrid retained the LCST phase behavior of its parent ELP. The absorbance at 350 nm was monitored as the solution temperature was ramped up and then down at a rate of 1° C./min. […] The transition temperature (Tt) is defined as the inflection point of absorbance versus temperature, calculated as the maximum of the curve's first derivative (FIG. 2D, arrow).

Marks after values point to notes of the source that are not given here.

B1: M-ELP100V,40: myristoylated ELP with 40 repeats of VPGXG where X is 100% valine (SEQ ID NO: 37) (conjugate)
chain: MGLYASKLFSNLGVGVPGVGVPGVGVPGVGVPGVGVPGVGVPGVGVPGVGVPGVGVPGVGVPGVGVPGVGVPGVGVPGVGVPGVGVPGVGVPGVGVPGVGVPGVGVPGVGVPGVGVPGVGVPGVGVPGVGVPGVGVPGVGVPGVGVPGVGVPGVGVPGVGVPGVGVPGVGVPGVGVPGVGVPGVGVPGVGVPGVGVPGVGVPGVGVPGVGVPG
modifications: N-terminal myristoylation
In the case of B1, the “morphology of self-assembled structure” value in data set [1] is “rod-like micelles”. Also, in data set [2], the “Refractive Index Increment dn/dc” value was determined as 0.1258 cm^3 g^−1; the “Hydrodynamic Radius, Day 0, Rh” value was 80.3 nm; the “Shape Factor, ρ, Rg/Rh” value is 1.30; the “Aggregation Number, Nagg, MWparticle/Munimer” value was 201^b. Further, the “time to reach equilibrium of self-assembly” value in data set [3] is recorded as no more than 24 h.

B2: ELP90A,40: non-myristoylated control sample, 40 repeats (SEQ ID NO: 36) (protein)
chain: MGLYASKLFSNLGAGVPGAGVPGVGVPGAGVPGAGVPGAGVPGAGVPGAGVPGAGVPGAGVPGAGVPGAGVPGVGVPGAGVPGAGVPGAGVPGAGVPGAGVPGAGVPGAGVPGAGVPGAGVPGVGVPGAGVPGAGVPGAGVPGAGVPGAGVPGAGVPGAGVPGAGVPGAGVPGVGVPGAGVPGAGVPGAGVPGAGVPGAGVPGAGVPGAGVPG
In the case of B2, in data set [4] (PBS, 12.5 to 250 μM), the “transition temperature (Tt)” value was “above 80 °C”.

B3: M-ELP90A,40: myristoylated ELP, 90% alanine, 10% valine, 40 pentapeptide repeats (SEQ ID NO: 36) (conjugate)
chain: B2 chain
modifications: N-terminal myristoylation
Turning to B3, in data set [2], the “Refractive Index Increment dn/dc” value is reported as 0.1669 cm^3 g^−1; the “Hydrodynamic Radius, Day 0, Rh” value was determined as 81.9 nm; the “Second Virial Coefficient A2” value is −2.30 × 10^−8 mol dm^3 g^−2; the “Shape Factor, ρ, Rg/Rh” value was found to be 1.29. Besides, in data set [2], the “Aggregation Number, Nagg, MWparticle/Munimer” value was 137^b. In addition, the “time to reach equilibrium of self-assembly” value in data set [3] fell in the range of 144 to 168 h.

B4: M-ELP90A,120: myristoylated ELP: Arf2 recognition sequence fused to 120 repeats of VPGXG, X 90% alanine and 10% valine (SEQ ID NO: 34) (conjugate)
chain: MGLYASKLFSNLGAGVPGAGVPGVGVPGAGVPGAGVPGAGVPGAGVPGAGVPGAGVPGAGVPGAGVPGAGVPGVGVPGAGVPGAGVPGAGVPGAGVPGAGVPGAGVPGAGVPGAGVPGAGVPGVGVPGAGVPGAGVPGAGVPGAGVPGAGVPGAGVPGAGVPGAGVPGAGVPGVGVPGAGVPGAGVPGAGVPGAGVPGAGVPGAGVPGAGVPGAGVPGAGVPGVGVPGAGVPGAGVPGAGVPGAGVPGAGVPGAGVPGAGVPGAGVPGAGVPGVGVPGAGVPGAGVPGAGVPGAGVPGAGVPGAGVPGAGVPGAGVPGAGVPGVGVPGAGVPGAGVPGAGVPGAGVPGAGVPGAGVPGAGVPGAGVPGAGVPGVGVPGAGVPGAGVPGAGVPGAGVPGAGVPGAGVPGAGVPGAGVPGAGVPGVGVPGAGVPGAGVPGAGVPGAGVPGAGVPGAGVPGAGVPGAGVPGAGVPGVGVPGAGVPGAGVPGAGVPGAGVPGAGVPGAGVPGAGVPGAGVPGAGVPGVGVPGAGVPGAGVPGAGVPGAGVPGAGVPGAGVPGAGVPGAGVPGAGVPGVGVPGAGVPGAGVPGAGVPGAGVPGAGVPGAGVPGAGVPGY
modifications: N-terminal myristoylation
As to B4, in data set [1], the “morphology of self-assembled structure” value is on record as “spherical micelles”. Besides, the “suppression of Tt by myristoylation” value in data set [4] (versus unmyristoylated ELP) was roughly 20 °C. In data set [2], the “Refractive Index Increment dn/dc” value is listed as 0.1515 cm^3 g^−1; the “Hydrodynamic Radius, Day 0, Rh” value worked out at 22.7 nm; the “hydrodynamic radius (Rh) by DLS” value is listed as roughly 22 nm; the “Second Virial Coefficient A2” value is listed as −9.23 × 10^−9 mol dm^3 g^−2. In addition, in data set [2], the “Shape Factor, ρ, Rg/Rh” value was found to be 0.98 and the “Aggregation Number, Nagg, MWparticle/Munimer” value is on record as 29.

B5: ELP90A,120: non-myristoylated control, recognition sequence-ELP grown without NMT (SEQ ID NO: 34) (protein)
chain: B4 chain
For the molecule B5, the “hydrodynamic radius (Rh) by DLS” value in data set [2] is reported as 6.2 nm.

B6: M-ELP90A,80: myristoylated ELP, same composition (90% alanine, 10% valine), 80 pentapeptide repeats (SEQ ID NO: 35) (conjugate)
chain: MGLYASKLFSNLGAGVPGAGVPGVGVPGAGVPGAGVPGAGVPGAGVPGAGVPGAGVPGAGVPGAGVPGAGVPGVGVPGAGVPGAGVPGAGVPGAGVPGAGVPGAGVPGAGVPGAGVPGAGVPGVGVPGAGVPGAGVPGAGVPGAGVPGAGVPGAGVPGAGVPGAGVPGAGVPGVGVPGAGVPGAGVPGAGVPGAGVPGAGVPGAGVPGAGVPGAGVPGAGVPGVGVPGAGVPGAGVPGAGVPGAGVPGAGVPGAGVPGAGVPGAGVPGAGVPGVGVPGAGVPGAGVPGAGVPGAGVPGAGVPGAGVPGAGVPGAGVPGAGVPGVGVPGAGVPGAGVPGAGVPGAGVPGAGVPGAGVPGAGVPGAGVPGAGVPGVGVPGAGVPGAGVPGAGVPGAGVPGAGVPGAGVPGAGVPG
modifications: N-terminal myristoylation
For the molecule B6, in data set [1], the “morphology of self-assembled structure” value was “spherical micelles”. Moreover, in data set [2], the “Refractive Index Increment dn/dc” value worked out at 0.1660 cm^3 g^−1; the “Hydrodynamic Radius, Day 0, Rh” value came to 31.2 nm; the “Second Virial Coefficient A2” value was −5.58 × 10^−9 mol dm^3 g^−2; the “Shape Factor, ρ, Rg/Rh” value is given as 1.00. In data set [2], the “Aggregation Number, Nagg, MWparticle/Munimer” value came out at 48.
